# Assay results: publication PMC3757182, “ATPase Mechanism of the 5′-3′ DNA Helicase, RecD2” (The Journal of Biological Chemistry, 2013)
# T1: PcrA (Geobacillus stearothermophilus, UniProt P56255)
# T1 construct: recombinant, prepared as described previously
# T1 sequence (P56255 1-724): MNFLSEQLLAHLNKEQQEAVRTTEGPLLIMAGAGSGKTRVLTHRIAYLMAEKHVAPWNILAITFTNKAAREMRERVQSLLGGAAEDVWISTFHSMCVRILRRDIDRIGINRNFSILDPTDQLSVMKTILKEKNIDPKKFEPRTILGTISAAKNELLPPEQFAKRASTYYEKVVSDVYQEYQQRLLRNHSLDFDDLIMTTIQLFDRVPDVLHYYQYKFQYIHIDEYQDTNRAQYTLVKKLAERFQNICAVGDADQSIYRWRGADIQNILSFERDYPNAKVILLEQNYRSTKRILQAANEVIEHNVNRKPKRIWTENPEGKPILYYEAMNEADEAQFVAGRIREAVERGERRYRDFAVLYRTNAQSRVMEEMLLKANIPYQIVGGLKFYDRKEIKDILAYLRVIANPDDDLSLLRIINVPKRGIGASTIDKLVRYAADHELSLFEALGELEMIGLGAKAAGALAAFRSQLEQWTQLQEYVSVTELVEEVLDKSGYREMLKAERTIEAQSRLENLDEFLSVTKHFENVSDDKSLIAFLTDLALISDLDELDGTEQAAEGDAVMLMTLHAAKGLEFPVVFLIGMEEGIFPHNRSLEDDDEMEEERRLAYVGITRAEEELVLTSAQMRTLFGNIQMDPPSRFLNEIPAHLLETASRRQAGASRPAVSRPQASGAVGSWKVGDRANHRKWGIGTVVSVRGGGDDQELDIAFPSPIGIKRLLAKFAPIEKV
# B1: RecD2 (Deinococcus radiodurans R1 = ATCC 13939 = DSM 20539) (protein)
# chain: SQQGLERRLLAGLQGLGLTINQAQRAVKHFGADALDRLEKDLFTLTEVEGIGFLTADKLWQARGGALDDPRRLTAAAVYALQLAGTQAGHSFLPRSRAEKGVVHYTRVTPGQARLAVETAVELGRLSEDDSPLFAAEAAATGEGRIYLPHVLRAEKKLASLIRTLLATPPADGAGNDDWAVPKKARKGLSEEQASVLDQLAGHRLVVLTGGPGTGKSTTTKAVADLAESLGLEVGLCAPTGKAARRLGEVTGRTASTVHRLLGYGPQGFRHNHLEPAPYDLLIVDEVSMMGDALMLSLLAAVPPGARVLLVGDTDQLPPVDAGLPLLALAQAAPTIKLTQVYRQAAKNPIIQAAHGLLHGEAPAWGDKRLNLTEIEPDGGARRVALMVRELGGPGAVQVLTPMRKGPLGMDHLNYHLQALFNPGEGGVRIAEGEARPGDTVVQTKNDYNNEIFNGTLGMVLKAEGARLTVDFDGNVVELTGAELFNLQLGYALTVHRAQGSEWGTVLGVLHEAHMPMLSRNLVYTALTRARDRFFSAGSASAWQIAAARQREARNTALLERIRAH
# notes: N-terminal truncation lacking the first 150 amino acids; recombinant; monomer
# What was measured:
# [1] = target: T1, PcrA; assay: stopped-flow fluorescence, koff/kon; assay type: binding
# [2] = target: T1, PcrA; assay: stopped-flow fluorescence, quench-flow HPLC, Pi release, single turnover; assay type: biochemical; settings: 8 μM PcrA, 10 μM dT20, 2 μM deac-aminoATP; 3 mM MgCl2, pH 7.5; labelled compound
# [3] = substrate: Nc1ncnc2c1ncn2[C@@H]1O[C@H](COP(=O)(O)OP(=O)(O)OP(=O)(O)O)[C@@H](O)[C@H]1O; assay: steady-state ATPase, MDCC-PBP phosphate release; assay type: biochemical, Deinococcus radiodurans; settings: with 500 nM dT20 ssDNA, 10 mM MgCl2, pH 7.5, 20 °C
# Excerpt: (§1) steady-state ATPase, MDCC-PBP phosphate release on RecD2
# [4] = substrate: CNc1ccccc1C(=O)O[C@H]1C[C@H](n2cnc3c(N)ncnc32)O[C@@H]1COP(=O)(O)OP(=O)(O)OP(=O)(O)O; assay: steady-state ATPase, MDCC-PBP phosphate release; assay type: biochemical, Deinococcus radiodurans; settings: with 500 nM dT20 ssDNA, 10 mM MgCl2, pH 7.5, 20 °C
# Excerpt: as §1
molecule,measurement,setting,value
CCN(CC)c1ccc2cc(C(=O)N[C@H]3[C@@H](O)[C@H](n4cnc5c(N)ncnc54)O[C@@H]3COP(=O)(O)OP(=O)(O)O)c(=O)oc2c1 [deac-aminoADP],Kd,[1],1700 nM
"CCN(CC)c1ccc2cc(C(=O)N[C@H]3[C@@H](O)[C@H](n4cnc5c(N)ncnc54)O[C@@H]3COP(=O)(O)OP(=O)(O)OP(=O)(O)O)c(=O)oc2c1 [deac-aminoATP, 3′-(7-diethylaminocoumarin-3-carbonylamino)-3′-deoxyadenosine-5′-triphosphate]","stopped-flow fluorescence, quench-flow HPLC, Pi release, single turnover",[2],"After mixing excess PcrA·dT20 with deac-aminoATP, there was a biphasic increase in fluorescence"
B1,Km,[3],30.3 ± 1.5 µM
same,kcat,[3],86.9 ± 1.5 s⁻¹
same,Km,[4],12.1 ± 1.7 µM
same,kcat,[4],40.2 ± 2.4 s⁻¹
